Target: the molecule itself
Experiment: negative-stain TEM; 0.02 mg/ml purified protein on glow-discharged carbon-coated copper grids, 2% uranyl acetate; single-point mutants taken directly after TEV cleavage of the 8×His tag

Row | Protein | binding result
1 | hNINJ1∆1–36 (domain or fragment, human, UniProt Q92982 37-152, looked up, ninjurin-1 (NINJ1), human, UniProt Q92982, printed as hNINJ1∆1–36 (residues 1–36 removed); probably as the wild type (8×His and TEV site, cleaved); also called truncated hNINJ1; source: E. coli Rosetta2 (DE3), purified) NVNHYASKKSAAESMLDIALLMANASQLKAVVEQGPSFAFYVPLVVLISISLVLQIGVGVLLIFLVKYDLNNPAKHAKLDFLNNLATGLVFIIVVVNIFITAFGVQKPLMDMAPQQ | binds
2 | hNINJ1 Q91A (natural protein, human, UniProt Q92982 1-152, looked up, ninjurin-1 (NINJ1), human, UniProt Q92982, residues 1–152, point mutant; source: E. coli Rosetta2 (DE3), purified (DDM, Ni-NTA, TEV cleavage); not shown: 8×His, N-terminal, cleaved) MDSGTEEYELNGGLPPGTPGSPDASPARWGWRHGPINVNHYASKKSAAESMLDIALLMANASQLKAVVEQGPSFAFYVPLVVLISISLVLAIGVGVLLIFLVKYDLNNPAKHAKLDFLNNLATGLVFIIVVVNIFITAFGVQKPLMDMAPQQ | binds
3 | hNINJ1 L121W (natural protein, human, UniProt Q92982 1-152, looked up, ninjurin-1 (NINJ1), human, UniProt Q92982, residues 1–152, point mutant; source: E. coli Rosetta2 (DE3), purified (DDM, Ni-NTA, TEV cleavage); not shown: 8×His, N-terminal, cleaved) MDSGTEEYELNGGLPPGTPGSPDASPARWGWRHGPINVNHYASKKSAAESMLDIALLMANASQLKAVVEQGPSFAFYVPLVVLISISLVLQIGVGVLLIFLVKYDLNNPAKHAKLDFLNNWATGLVFIIVVVNIFITAFGVQKPLMDMAPQQ | binds
4 | hNINJ1 G95L (natural protein, human, UniProt Q92982 1-152, looked up, ninjurin-1 (NINJ1), human, UniProt Q92982, residues 1–152, point mutant; source: E. coli Rosetta2 (DE3), purified (DDM, Ni-NTA, TEV cleavage); not shown: 8×His, N-terminal, cleaved) MDSGTEEYELNGGLPPGTPGSPDASPARWGWRHGPINVNHYASKKSAAESMLDIALLMANASQLKAVVEQGPSFAFYVPLVVLISISLVLQIGVLVLLIFLVKYDLNNPAKHAKLDFLNNLATGLVFIIVVVNIFITAFGVQKPLMDMAPQQ | binds
5 | hNINJ1 T123L (natural protein, human, UniProt Q92982 1-152, looked up, ninjurin-1 (NINJ1), human, UniProt Q92982, residues 1–152, point mutant; source: E. coli Rosetta2 (DE3), purified (DDM, Ni-NTA, TEV cleavage); not shown: 8×His, N-terminal, cleaved) MDSGTEEYELNGGLPPGTPGSPDASPARWGWRHGPINVNHYASKKSAAESMLDIALLMANASQLKAVVEQGPSFAFYVPLVVLISISLVLQIGVGVLLIFLVKYDLNNPAKHAKLDFLNNLALGLVFIIVVVNIFITAFGVQKPLMDMAPQQ | binds
6 | hNINJ1 I134F (natural protein, human, UniProt Q92982 1-152, looked up, ninjurin-1 (NINJ1), human, UniProt Q92982, residues 1–152, point mutant; source: E. coli Rosetta2 (DE3), purified (DDM, Ni-NTA, TEV cleavage); not shown: 8×His, N-terminal, cleaved) MDSGTEEYELNGGLPPGTPGSPDASPARWGWRHGPINVNHYASKKSAAESMLDIALLMANASQLKAVVEQGPSFAFYVPLVVLISISLVLQIGVGVLLIFLVKYDLNNPAKHAKLDFLNNLATGLVFIIVVVNFFITAFGVQKPLMDMAPQQ | binds
7 | hNINJ1 V82F (natural protein, human, UniProt Q92982 1-152, looked up, ninjurin-1 (NINJ1), human, UniProt Q92982, residues 1–152, point mutant; source: E. coli Rosetta2 (DE3), purified (DDM, Ni-NTA, TEV cleavage); not shown: 8×His, N-terminal, cleaved) MDSGTEEYELNGGLPPGTPGSPDASPARWGWRHGPINVNHYASKKSAAESMLDIALLMANASQLKAVVEQGPSFAFYVPLVFLISISLVLQIGVGVLLIFLVKYDLNNPAKHAKLDFLNNLATGLVFIIVVVNIFITAFGVQKPLMDMAPQQ | binds
8 | full-length, wild-type human NINJ1 (ninjurin-1), residues 1–152 (natural protein, UniProt Q92982 1-152, looked up, ninjurin-1 (NINJ1), human, UniProt Q92982, residues 1–152; residues 39–141 are modelled in the filament structure; residues of the site probably remain at the N-terminus after cleavage; Forms filaments of no fixed number of subunits; also called hNINJ1; hNINJ1(1–152); source: E. coli Rosetta2 (DE3), extracted from membranes with DDM, purified (Ni-NTA, TEV cleavage, SEC on Superose 6); not shown: …) MDSGTEEYELNGGLPPGTPGSPDASPARWGWRHGPINVNHYASKKSAAESMLDIALLMANASQLKAVVEQGPSFAFYVPLVVLISISLVLQIGVGVLLIFLVKYDLNNPAKHAKLDFLNNLATGLVFIIVVVNIFITAFGVQKPLMDMAPQQ | binds
9 | hNINJ1 D53A (natural protein, human, UniProt Q92982 1-152, looked up, ninjurin-1 (NINJ1), human, UniProt Q92982, residues 1–152, point mutant; source: E. coli Rosetta2 (DE3), purified (DDM, Ni-NTA, TEV cleavage); not shown: 8×His, N-terminal, cleaved) MDSGTEEYELNGGLPPGTPGSPDASPARWGWRHGPINVNHYASKKSAAESMLAIALLMANASQLKAVVEQGPSFAFYVPLVVLISISLVLQIGVGVLLIFLVKYDLNNPAKHAKLDFLNNLATGLVFIIVVVNIFITAFGVQKPLMDMAPQQ | binds
10 | hNINJ1 L121F (natural protein, human, UniProt Q92982 1-152, looked up, ninjurin-1 (NINJ1), human, UniProt Q92982, residues 1–152, point mutant; source: E. coli Rosetta2 (DE3), purified (DDM, Ni-NTA, TEV cleavage); not shown: 8×His, N-terminal, cleaved) MDSGTEEYELNGGLPPGTPGSPDASPARWGWRHGPINVNHYASKKSAAESMLDIALLMANASQLKAVVEQGPSFAFYVPLVVLISISLVLQIGVGVLLIFLVKYDLNNPAKHAKLDFLNNFATGLVFIIVVVNIFITAFGVQKPLMDMAPQQ | binds
11 | hNINJ1 V82W (natural protein, human, UniProt Q92982 1-152, looked up, ninjurin-1 (NINJ1), human, UniProt Q92982, residues 1–152, point mutant; source: E. coli Rosetta2 (DE3), purified (DDM, Ni-NTA, TEV cleavage); not shown: 8×His, N-terminal, cleaved) MDSGTEEYELNGGLPPGTPGSPDASPARWGWRHGPINVNHYASKKSAAESMLDIALLMANASQLKAVVEQGPSFAFYVPLVWLISISLVLQIGVGVLLIFLVKYDLNNPAKHAKLDFLNNLATGLVFIIVVVNIFITAFGVQKPLMDMAPQQ | binds
12 | hNINJ1 A47L (natural protein, human, UniProt Q92982 1-152, looked up, ninjurin-1 (NINJ1), human, UniProt Q92982, residues 1–152, point mutant; source: E. coli Rosetta2 (DE3), purified (DDM, Ni-NTA, TEV cleavage); not shown: 8×His, N-terminal, cleaved) MDSGTEEYELNGGLPPGTPGSPDASPARWGWRHGPINVNHYASKKSLAESMLDIALLMANASQLKAVVEQGPSFAFYVPLVVLISISLVLQIGVGVLLIFLVKYDLNNPAKHAKLDFLNNLATGLVFIIVVVNIFITAFGVQKPLMDMAPQQ | binds
13 | hNINJ1 A138L (natural protein, human, UniProt Q92982 1-152, looked up, ninjurin-1 (NINJ1), human, UniProt Q92982, residues 1–152, point mutant; source: E. coli Rosetta2 (DE3), purified (DDM, Ni-NTA, TEV cleavage); not shown: 8×His, N-terminal, cleaved) MDSGTEEYELNGGLPPGTPGSPDASPARWGWRHGPINVNHYASKKSAAESMLDIALLMANASQLKAVVEQGPSFAFYVPLVVLISISLVLQIGVGVLLIFLVKYDLNNPAKHAKLDFLNNLATGLVFIIVVVNIFITLFGVQKPLMDMAPQQ | binds
14 | hNINJ1 K45Q (natural protein, human, UniProt Q92982 1-152, looked up, ninjurin-1 (NINJ1), human, UniProt Q92982, residues 1–152, point mutant; source: E. coli Rosetta2 (DE3), purified (DDM, Ni-NTA, TEV cleavage); not shown: 8×His, N-terminal, cleaved) MDSGTEEYELNGGLPPGTPGSPDASPARWGWRHGPINVNHYASKQSAAESMLDIALLMANASQLKAVVEQGPSFAFYVPLVVLISISLVLQIGVGVLLIFLVKYDLNNPAKHAKLDFLNNLATGLVFIIVVVNIFITAFGVQKPLMDMAPQQ | binds
15 | hNINJ1 I84F (natural protein, human, UniProt Q92982 1-152, looked up, ninjurin-1 (NINJ1), human, UniProt Q92982, residues 1–152, point mutant; source: E. coli Rosetta2 (DE3), purified (DDM, Ni-NTA, TEV cleavage); not shown: 8×His, N-terminal, cleaved) MDSGTEEYELNGGLPPGTPGSPDASPARWGWRHGPINVNHYASKKSAAESMLDIALLMANASQLKAVVEQGPSFAFYVPLVVLFSISLVLQIGVGVLLIFLVKYDLNNPAKHAKLDFLNNLATGLVFIIVVVNIFITAFGVQKPLMDMAPQQ | binds
